According to US20160129086A1:

Target: CD20 on human lymphoma cells (Daudi, Jeko-1) (UniProt P11836)
Assay: cell-based or functional assay

Chain of CD20 on human lymphoma cells (Daudi, Jeko-1) (P11836 whole entry): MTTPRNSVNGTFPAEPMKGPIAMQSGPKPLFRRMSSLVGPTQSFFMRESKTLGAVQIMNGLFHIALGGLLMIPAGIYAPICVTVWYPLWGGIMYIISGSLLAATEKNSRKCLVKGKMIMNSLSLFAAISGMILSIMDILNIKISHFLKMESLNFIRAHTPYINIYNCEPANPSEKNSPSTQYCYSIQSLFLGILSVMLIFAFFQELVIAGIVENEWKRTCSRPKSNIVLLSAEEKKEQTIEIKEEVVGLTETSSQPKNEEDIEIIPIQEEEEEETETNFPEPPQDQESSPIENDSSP

EC50, high-concentration response, in vitro proliferation of Jeko-1 cells	EC50, low-concentration response, in vitro proliferation of Jeko-1 cells	EC50, in vitro proliferation of Jeko-1 cells	Substance
0.85 nM	0.00097 nM	–	20-2b (from UniProt P01563 24-188)
–	–	1.5 nM	veltuzumab (antibody)
